Experimental data taken from US20220387578A1.

Legend:
Assay in all cases: ELISA
[1] = target: H1 HA A/Solomon Islands/03/2006 (H1N1), recombinant soluble trimer (influenza A virus)
[2] = target: H3 HA A/Texas/50/2012, recombinant soluble trimer (influenza A virus)
[3] = target: H1 HA A/Texas/36/1991 (H1N1), recombinant soluble trimer (influenza A virus)

Measured: EC50 relative to wild type rFluA-20

B1: rFluA-20 heavy chain mutant Y100aA (antibody, V domains shown)
VH: QVQLQESGPGLVKPSETLSLTCSVSGVSVTSDIYYWTWIRQPPGKGLEWIGYIFYNGDTNYNPSLKSRVTMSIDTSKNEFSLRLTSVTAADTAVYFCARGTEDLGACSSGSCPNHWGQGTLVTVSS
VL: DIQMTQSPSSLSASIGDRVTITCRPSQNIRSFLNWFQHKPGKAPKLLIYAASNLQSGVPSRFSGSGSGTEFTLTIRSLQPEDFATYYCQQSYNTPPTFGQGTKVEIK
> 100 fold: [1] | [2] | [3]
